From US20150376269A1 (Regeneron, published 2015)
Residue numbers refer to the chain shown, from its start. Names and notes keep the numbering of the source.

T1: serum resistance-associated protein (SRA) from Trypanosoma brucei rhodesiense, recombinant SRA (SEQ ID NO: … (Trypanosoma brucei rhodesiense, UniProt O96637 31-274))
T1 construct: also called SRA protein
T1 sequence: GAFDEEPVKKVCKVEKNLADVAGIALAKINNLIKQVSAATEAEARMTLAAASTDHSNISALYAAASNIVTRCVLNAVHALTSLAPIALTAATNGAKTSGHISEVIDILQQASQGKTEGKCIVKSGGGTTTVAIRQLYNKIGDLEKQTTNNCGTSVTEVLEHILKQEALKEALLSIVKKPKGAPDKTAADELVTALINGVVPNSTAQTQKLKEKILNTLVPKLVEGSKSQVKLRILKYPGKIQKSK

T2: SRA.mmh
T2 construct: also called SRA.mmh (CHO)
T2 antigen: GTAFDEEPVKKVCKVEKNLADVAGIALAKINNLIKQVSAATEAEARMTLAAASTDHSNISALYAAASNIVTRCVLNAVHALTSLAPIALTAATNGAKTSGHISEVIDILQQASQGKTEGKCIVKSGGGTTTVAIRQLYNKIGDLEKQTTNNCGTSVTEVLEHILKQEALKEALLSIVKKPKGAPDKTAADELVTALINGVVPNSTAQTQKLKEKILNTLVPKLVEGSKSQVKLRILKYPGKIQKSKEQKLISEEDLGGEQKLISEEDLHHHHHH

B1: H1H10059P (antibody, V domains shown)
VH: QVQLVQSGAEVKKPGASVKVSCKAAGFTFIGYYIHWVRQAPGQGLEWMGWINSNSGDKDSAPKFQDRVTMTRDTSISTAYMELSRLRSDDTAVYFCAREGYNFGHFDYWGQGTLVTVSS
VL: DIVMTQTPLSSPVTLGQPASISCRSSQSLVHSDGNTYLSWLQQRPGQPPRLLIYKISNRLSGVPDRFSGSGAGTDFTLKISRVEGEDVGVYYCMQGTQFPRTFGQGTKVEIK
notes: Fully human antibody with human IgG1 Fc (prefix H1H)
B2: H2aM10204N (antibody, V domains shown)
VH: QVHLVQSGAEVKKPGSSVKVSCKASGGTFSNYAISWVRQAPGQGLEWMGGIIPFSGSATYAQNFQGRITITTDESTRTAYMELNGLRSEDTAVYYCARWFSGYGGDFDYWGQGTLVTVSS
VL: AIQMTQSPSSLSASVGDRVTITCRASQDIKNDLGWYQQKPGKAPKLLIYAASTLQSGVPSRFSGSGSGTHFTLTLSSLQPEDFATYFCLQDYTFPRTFGQGTKVEIK
notes: Chimeric antibody, human variable domains and mouse constant domains (mouse Fc, prefix H2aM); also called H2M10204N
B3: H2aM10285N (antibody, V domains shown)
VH: QVQLVQSGAEVKKPGSSVKVSCKASGGTFTNFAISWVRQAPGLGLEWMGGIIPFVGTATYEQKFQGRVSITADESTRTAYMELSSLRYDDTAVYYCARWFSGSGGDFDYWGQGTLVTVSS
VL: B2 VL with D28G, K30G, K39R, P40R, K42T, T53S, H70D, L75I, F87Y, Y92F
notes: Chimeric antibody, human variable domains and mouse constant domains (mouse Fc, prefix H2aM); also called H2M10285N
B4: H1H10041P (antibody, V domains shown)
VH: QVQLVQSGAEVRKPGSSMKVSCATSGGNFRSYTINWVRQAPGQGLEWMGGVFPAVGTRIYAQKFQGRVTISTDESTTIAYMELNSLVPEDTAVYYCARSFNSPFDFWDQGTLVTVSS
VL: AIQMTQSPSSLSASVGDRVTLTCRASQDIRNDLHWFQQTPGKAPRLLIYSASNLQSGVPSRFSGTGSGTDFTLTFSSLQPEDFATYYCLQDYSYPYTFGQGTKLEIK
notes: as for B1
B5: H2bM10093N (antibody, V domains shown)
VH: EVQLVESGGGLVKPGGSLRLSCVASGFTLSGYSMNWVRQAPGKGLEWVSSISTSSSYIYYADSVQGRFTISRDNAKNSLYLQMNSLRAEDTAVYYCVRKGANWIYFDYWGQGTLVTVSS
VL: DIQMTQSPSSVSASVGDRVTITCRASQGISSLLAWFQQKPGKAPNLLIYAASSLQSGVPSRFSGSGSGTDFTLTISSLQPEDFATYYCQQAKSFPFTFGPGTKVDIK
notes: Chimeric antibody, human variable domains and mouse constant domains; also called H2aM10093N; H2M10093N
B6: H1H10061P (antibody, V domains shown)
VH: QVQLVESGGGVVQPGNSLRLSCAASGFTFSAYGMHWVRQAPGKGLEWVAVISYDGSNEFYADSVKGRFTIFRDNSKNMLYLQMNSLRVEDTSIYYCAKDRGLGVYYFFYGMDVWGQGTTVTVSS
VL: DIVMTQSPDSLVVSLGERATINCKSSQSLLYSSSNNNYLTWYQQKPGRPPKLLIYWASTRESGVPDRFSGSGSGTDFTLTISSLQAEDVAIYYCQQNYITPLTFGGGTKVEIK
notes: as for B1
B7: H1H10069P (antibody, V domains shown)
VH: QVQLQESGPGLVKPSETLSLTCSVSGGSFTNYYWSWIRQPPGKGLEWIGSVFYSGTTNYNPSLQSRVTLSIETSKNQFSLRLNSVTAADTAVYYCARDQGAAALDYWGQGTLVTVSS
VL: DIQMTQSPSTLSASVGDRLTITCRASQSINNWLAWYQQKPGKAPKLLIYKASNLESGVPSRFSGSGSGTEFTLTISNLQPDDFATYYCQQYNSFFLTFGGGTKVEIK
notes: as for B1
B8: apoL1 peptide (SEQ ID NO: 297) (peptide)
peptide: VYESKHLHEGAKSETAEELKKVAQELEEKLNILNNNYKILQADQEL
notes: Peptide of human apolipoprotein L1 used in the H/D exchange experiment

biological target: T1, serum resistance-associated protein …; assay: SPR, mAb captured, 50 nM SRA, pH 4.5, 25C

Binder	50 nM SRA binding (RU)
B1	73 RU
B2	140 RU
B3	120 RU
B4	88 RU
B5	138 RU
B6	79 RU
B7	54 RU

biological target: T1, serum resistance-associated protein …; assay: SPR, mAb captured, pH 4.5, 25C; competitor biotin-mutant apoL1 peptide

Binder	50 nM SRA + 5 uM mutant apoL1 peptide binding (RU)	% Blocking, Mutant apoL1 peptide
B1	65 RU	11%
B2	128 RU	9%
B3	111 RU	8%
B4	83 RU	5%
B5	122 RU	12%
B6	75 RU	5%
B7	52 RU	5%

biological target: T1, serum resistance-associated protein …; assay: SPR, mAb captured, 25C, assoc. pH 7.4, dissoc. pH 4.5
Description: (§1) Equilibrium dissociation constants (KD) values for SRA binding to selected purified anti-SRA monoclonal antibodies were determined using a real-time surface plasmon resonance biosensor assay on a Biacore T200 instrument. […] SRA binding to the captured monoclonal antibodies was monitored for 4 min while the dissociation of mAb bound SRA was monitored for 7 min. Two different assays formats were adopted to characterize kinetics of SRA binding—(i) regular kinetics and (ii) pH4.5 chase. Regular kinetics experiments were performed using pH7.4 buffer as the running buffer and both the association and dissociation was performed in pH7.4. For the chase format, association and dissociation were performed in pH7.4 buffer and pH4.5 buffer respectively.
(§2) Kinetic association (kₐ) and dissociation (kd) rate constants were determined by processing and fitting the data to a 1:1 binding model using Scrubber 2.0c curve fitting software. Only the dissociation rate (kd) was calculated for the pH4.5 chase experiment. Binding dissociation equilibrium constants (KD) and dissociative half-lives (t½) were calculated from the kinetic rate constants as:

Binder	t ½
B1	0.617 h
B2	0.0333 h
B3	0.0117 h
B4	2.75 h
B5	0.02 h
B6	1.82 h
B7	1.87 h

biological target: T1, serum resistance-associated protein …; assay: H/D exchange MS, SRA-apoL1 peptide complex, pH 5.0

Binder	binding result
B8	binds

Biological target: T2, SRA.mmh
Assay: Octet, SRA.mmh captured on anti-Penta-His tips, mAb-1 at 50 ug/mL for 5 min, 25 C, pH 7.4

Binder	50 ug/mL mAb 1 Bound (nm)
B1	1.24 nm
B2	1.46 nm
B3	1.53 nm
B4	1.69 nm
B5	1.48 nm
B6	1.53 nm
B7	1.61 nm

biological target: T1, serum resistance-associated protein …; assay: SPR, 25C, t1/2 pH 7.4 over pH 4.5
Description: as §1, §2

Binder	t ½ ratio pH 7.4/pH 4.5
B1	≥ 6
B2	≥ 95
B3	124
B4	≥ 1
B5	20
B6	≥ 2
B7	≥ 2

biological target: T1, serum resistance-associated protein …; assay: SPR, mAb captured, pH 4.5, 25C; competitor biotin-apoL1 peptide

Binder	50 nM SRA + 5 uM apoL1 peptide binding (RU)	% Blocking, apoL1 peptide
B1	-9 RU	100%
B2	3 RU	98%
B3	8 RU	94%
B4	3 RU	97%
B5	4 RU	97%
B6	-5 RU	100%
B7	62 RU	-13%

biological target: T1, serum resistance-associated protein …; assay: SPR, mAb captured, 25C, pH 7.4; pH 7.4, 25 C
Description: as §1, §2

Binder	koff
B5	0.000494 s⁻¹

Biological target: T2, SRA.mmh
Assay: Octet, mAb-2 at 50 ug/mL on captured SRA.mmh after negative control α-PRLR H1H6800P as mAb-1 (row 32 (-))

Binder	Binding of mAb-2 to SRA Pre-complexed with mAb-1
B1	1.17
B2	1.08
B3	1.24
B4	1.57
B5	1.32
B6	1.53
B7	1.37

biological target: T1, serum resistance-associated protein …; assay: SPR, mAb captured, 25C, pH 7.4
Description: as §1, §2

Binder	Kd	kon	t ½
B1	≤ 0.0318 nM	1.57e+06 M⁻¹ s⁻¹	≥ 3.85 h
B2	≤ 0.0899 nM	556000 M⁻¹ s⁻¹	≥ 3.85 h
B3	0.138 nM	1.03e+06 M⁻¹ s⁻¹	1.37 h
B4	≤ 0.0277 nM	1.8e+06 M⁻¹ s⁻¹	≥ 3.85 h
B5	0.948 nM	521000 M⁻¹ s⁻¹	0.383 h
B6	≤ 0.0308 nM	1.62e+06 M⁻¹ s⁻¹	≥ 3.85 h
B7	≤ 0.0785 nM	636000 M⁻¹ s⁻¹	≥ 3.85 h
